{
  "source": "patent US12269859B2",
  "about": "“Synthetic immune receptors and methods of use thereof” (Angeles Therapeutics, Inc., priority 2016, dated 2025)",
  "tested_on": "target antigen-expressing cell line",
  "assay": "Jurkat NFAT-GFP assay, coculture with target cell lines expressing the respective target antigen (summary Table 10A)",
  "assay_type": "cell-based, human",
  "parameters": "key: The signs +/−, +, 2+ etc. after the name of the cell lines indicate the relative degree of positivity on the Jurkat-NFAT-GFP assay as measured by the % GFP positive cells; +: relative degree of positivity on the Jurkat-NFAT-GFP assay as measured by the % GFP positive cells; 2+: relative degree of positivity on the Jurkat-NFAT-GFP assay as measured by the % GFP positive cells",
  "conditions": "relative % GFP positive cells; for NFAT-GFP ASSAY Positive Cell lines: NALM6: SIR-expressing Jurkat-NFAT-GFP cells cocultured with NALM6; for NFAT-GFP ASSAY Positive Cell lines: RAJI: SIR-expressing Jurkat-NFAT-GFP cells cocultured with RAJI",
  "summary_of_the_method": "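Coculture of SIR-bearing Jurkat NFAT-GFP reporters with target cells, ~1:2 E:T, ~4–18 h. FACS quantified % GFP+ cells, ranked semi-quantitatively against parental Jurkat-NFAT-GFP.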",
  "data": [
    {"molecule": "022817-L08 (protein) MALPVTALLLPLALLLHAARPDIVMTQSPATLSLSPGERATLSCRSSKSLQNVNGNTYLYWFQQKPGQSPQLLIYRMSNLNSGVPDRFSGSGSGTEFTLTISSLEPEDFAVYYCMQHLEYPITFGAGTKLEIKLEEQKLISEEDLGSGEDLKNVFPPEVAVFEPSKAEIAHTQKATLVCLATGFYPDHVELSWWVNGKEVHSGVCTDPQPLKEQPALNDSRYCLSSRLRVSATFWQNPRNHFRCQVQFYGLSENDEWTQDRAKPVTQIVSAEAWGRADCGITSASYHQGVLSATILYEILLGKATLYAVLVSALVLMAMVKRKDSRGRAKRSGSGATNFSLLKQAGDVEENPGPTSMDWIWRILFLVGAATGAHSFEEVQLVESGGGLVKPGGSLKLSCAASGYTFTSYVMHWVRQAPGKGLEWIGYINPYNDGTKYNEKFQGRVTISSDKSISTAYMELSSLRSEDTAMYYCARGTYYYGTRVFDYWGQGTLVTVSSTREQKLISEEDLGSGIQNPDPAVYQLRDSKSSDKSVCLFTDFDSQTNVSQSKDSDVYITDKCVLDMRSMDFKSNSAVAWSNKSDFACANAFNNSIIPEDTFFPSSDVPCDVKLVEKSFETDTNLNFQNLSVIGFRILLLKVAGFNLLMTLRLWSSRAKRSGSGVKQTLNFDLLKLAGDVESNPGPSRGHMTEYKPTVRLATRDDVPRAVRTLAAAFADYPATRHTVDPDRHIERVTELQELFLTRVGLDIGKVWVADDGAAVAVWTTPESVEAGAVFAEIGPRMAELSGSRLAAQQQMEGLLAPHRPKEPAWFLATVGVSPDHQGKGLGSAVVLPGVEAAERAGVPAFLETSAPRNLPFYERLGFTVTADVEVPEGPRTWCMTRKPGA", "values": [
      {"measurement": "NFAT-GFP ASSAY Positive Cell lines: NALM6", "result": "(2+)"}
    ]},
    {"molecule": "012617-O05 (protein) MALPVTALLLPLALLLHAARPLEGKPIPNPLLGLDSTGSGEDLKNVFPPEVAVFEPSKAEIAHTQKATLVCLATGFYPDHVELSWWVNGKEVHSGVCTDPQPLKEQPALNDSRYCLSSRLRVSATFWQNPRNHFRCQVQFYGLSENDEWTQDRAKPVTQIVSAEAWGRADCGITSASYHQGVLSATILYEILLGKATLYAVLVSALVLMAMVKRKDSRGRAKRSGSGATNFSLLKQAGDVEENPGPTSMALPVTALLLPLALLLHAARPDILLTQSPATLSLSPGERATLSCKASQNVGTNVAWYQQKPGQPPKLLIYSATYRNSGIPARFSGSGSGTEFTLTITNVQSKDLADYFYFCQYNRYPYTSGGGTKLEIKRGGGGSGGGGSGGGGSQVQLVESGGGLVEPGGSLRLSCMSGYAFSSYWMNWVRQMPGKGLEWMGQIYPGDGDTNYNGKFKGRVTITADESTSTAYMELSSLKAEDTAVYFCARKTISSVVDFYFDNWGQGTLVTVSSTREQKLISEEDGSGIQNPDPAVYQLRDSKSSDKSVCLFTDFDSQTNVSQSKDSDVYITDKCVLDMRSMDFKSNSAVAWSNKSDFACANAFNNSIIPEDTFFPSSDVPCDVKLVEKSFETDTNLNFQNLSVIGFRILLLKVAGFNLLMTLRLWSSRAKRSGSGVKQTLNFDLLKLAGDVESNPGPSRGHMTEYKPTVRLATRDDVPRAVRTLAAAFADYPATRHTVDPDRHIERVTELQELFLTRVGLDIGKVWVADDGAAVAVWTTPESVEAGAVFAEIGPRMAELSGSRLAAQQQMEGLLAPHRPKEPAWFLATVGVSPDHQGKGLGSAVVLPGVEAAERAGVPAFLETSAPRNLPFYERLGFTVTADVEVPEGPRTWCMTRKPGA", "values": [
      {"measurement": "NFAT-GFP ASSAY Positive Cell lines: RAJI", "result": "RAJI (+/−)"}
    ]},
    {"molecule": "012417-I04 (protein) MALPVTALLLPLALLLHAARPLEGKPIPNPLLGLDSTGSGEDLKNVFPPEVAVFEPSKAEIAHTQKATLVCLATGFYPDHVELSWWVNGKEVHSGVCTDPQPLKEQPALNDSRYCLSSRLRVSATFWQNPRNHFRCQVQFYGLSENDEWTQDRAKPVTQIVSAEAWGRADCGITSASYHQGVLSATILYEILLGKATLYAVLVSALVLMAMVKRKDSRGRAKRSGSGATNFSLLKQAGDVEENPGPTSMALPVTALLLPLALLLHAARPDILLTQSPATLSLSPGERATLSCRASQSVDYDGDSYLNWYQQKPGQPPKLLIYDASNLVSGIPPRFSGSGSGTDFTLTISRLEPEDFAVYHCQQSTEDPWTFGGGTKLEIKGGGGSGGGGSGGGGSQVQLVESGGGLVEPGGSLRLSCMSGYAFSSYWMNWVRQMPGKGLEWMGQIWPGDGDTNYNPSLKSRVTITADESTSTAYMELSSLKAEDTAVYFCARRETTTVGRYYYAMDYWGQGTLVTVSSTREQKLISEEDGSGIQNPDPAVYQLRDSKSSDKSVCLFTDFDSQTNVSQSKDSDVYITDKCVLDMRSMDFKSNSAVAWSNKSDFACANAFNNSIIPEDTFFPSSDVPCDVKLVEKSFETDTNLNFQNLSVIGFRILLLKVAGFNLLMTLRLWSSRAKRSGSGVKQTLNFDLLKLAGDVESNPGPSRGHMTEYKPTVRLATRDDVPRAVRTLAAAFADYPATRHTVDPDRHIERVTELQELFLTRVGLDIGKVWVADDGAAVAVWTTPESVEAGAVFAEIGPRMAELSGSRLAAQQQMEGLLAPHRPKEPAWFLATVGVSPDHQGKGLGSAVVLPGVEAAERAGVPAFLETSAPRNLPFYERLGFTVTADVEVPEGPRTWCMTRKPGA", "values": [
      {"measurement": "NFAT-GFP ASSAY Positive Cell lines: RAJI", "result": "RAJI (+/−)"}
    ]},
    {"molecule": "020717-P08 (protein) MALPVTALLLPLALLLHAARPDILLTQSPATLSLSPGERATLSCKASQNVGTNVAWYQQKPGQPPKLLIYSATYRNSGIPARFSGSGSGTEFTLTITNVQSKDLADYFYFCQYNRYPYTSGGGTKLEIKRLEGKPIPNPLLGLDSTGSGEDLKNVFPPEVAVFEPSKAEIAHTQKATLVCLATGFYPDHVELSWWVNGKEVHSGVCTDPQPLKEQPALNDSRYCLSSRLRVSATFWQNPRNHFRCQVQFYGLSENDEWTQDRAKPVTQIVSAEAWGRADCGITSASYHQGVLSATILYEILLGKATLYAVLVSALVLMAMVKRKDSRGRAKRSGSGATNFSLLKQAGDVEENPGPTSMDWIWRILFLVGAATGAHSFEQVQLVESGGGLVEPGGSLRLSCMSGYAFSSYWMNWVRQMPGKGLEWMGQIYPGDGDTNYNGKFKGRVTITADESTSTAYMELSSLKAEDTAVYFCARKTISSVVDFYFDNWGQGTLVTVSSAEPKSPDKTHTCPPCPKDPKTREQKLISEEDLGSGIQNPDPAVYQLRDSKSSDKSVCLFTDFDSQTNVSQSKDSDVYITDKCVLDMRSMDFKSNSAVAWSNKSDFACANAFNNSIIPEDTFFPSSDVPCDVKLVEKSFETDTNLNFQNLSVIGFRILLLKVAGFNLLMTLRLWSSRAKRSGSGVKQTLNFDLLKLAGDVESNPGPSRGHMTEYKPTVRLATRDDVPRAVRTLAAAFADYPATRHTVDPDRHIERVTELQELFLTRVGLDIGKVWVADDGAAVAVWTTPESVEAGAVFAEIGPRMAELSGSRLAAQQQMEGLLAPHRPKEPAWFLATVGVSPDHQGKGLGSAVVLPGVEAAERAGVPAFLETSAPRNLPFYERLGFTVTADVEVPEGPRTWCMTRKPGA", "values": [
      {"measurement": "NFAT-GFP ASSAY Positive Cell lines: RAJI", "result": "RAJI (+)"}
    ]},
    {"molecule": "020817-U02 (protein) MALPVTALLLPLALLLHAARPLEGKPIPNPLLGLDSTGSGEDLKNVFPPEVAVFEPSKAEIAHTQKATLVCLATGFYPDHVELSWWVNGKEVHSGVCTDPQPLKEQPALNDSRYCLSSRLRVSATFWQNPRNHFRCQVQFYGLSENDEWTQDRAKPVTQIVSAEAWGRADCGITSASYHQGVLSATILYEILLGKATLYAVLVSALVLMAMVKRKDSRGRAKRSGSGATNFSLLKQAGDVEENPGPTSMALPVTALLLPLALLLHAARPDILLTQSPATLSLSPGERATLSCRASQSVDNYGISFMNWYQQKPGQPPKLLIYAASNQGSGIPSRFSGSGSGTDFTLTISSLEPEDFAMYFCQQSNEVPRTFGGGTKLEIKGGGGSGGGGSGGGGSQVQLVESGGGLVEPGGSLRLSCMSGYAFSSSWMNWVRQMPGKGLEWMGRIYPGDGDTNYNGKFKERVTITADESTSTAYMELSSLKAEDTAVYFCARSEYWGNYWAMDYWGQGTLVTVSSTREQKLISEEDGSGIQNPDPAVYQLRDSKSSDKSVCLFTDFDSQTNVSQSKDSDVYITDKCVLDMRSMDFKSNSAVAWSNKSDFACANAFNNSIIPEDTFFPSSDVPCDVKLVEKSFETDTNLNFQNLSVIGFRILLLKVAGFNLLMTLRLWSSRAKRSGSGVKQTLNFDLLKLAGDVESNPGPSRGHMTEYKPTVRLATRDDVPRAVRTLAAAFADYPATRHTVDPDRHIERVTELQELFLTRVGLDIGKVWVADDGAAVAVWTTPESVEAGAVFAEIGPRMAELSGSRLAAQQQMEGLLAPHRPKEPAWFLATVGVSPDHQGKGLGSAVVLPGVEAAERAGVPAFLETSAPRNLPFYERLGFTVTADVEVPEGPRTWCMTRKPGA", "values": [
      {"measurement": "NFAT-GFP ASSAY Positive Cell lines: NALM6", "result": "(+/−)"},
      {"measurement": "NFAT-GFP ASSAY Positive Cell lines: RAJI", "result": "RAJI (+), NALM6"}
    ]},
    {"molecule": "070517-G02 (protein) MALPVTALLLPLALLLHAARPLETPFPSLAPPIMLLVDGKQQMVVVCLVLDVAPPGLDSPIWFSAGNGSALDAFTYGPSPATDGTWTNLAHLSLPSEELASWEPLVCHTGPGAEGHSRSTQPMHLSGEASTARTCPQEPLRGTPGGALWLGVLRLLLFKLLLFDLLLTCSCLCDPAGPLPSPATTTRLRALGSHRLHPATETGGREATSSPRPQPRDRRWGDTPPGRKPGSPVRAKRSGSGVKQTLNFDLLKLAGDVESNPGPTSTMALPVTALLLPLALLLHAARPDIQMTQSPSSLSASVGDRVTITCKASDHINNWLAWYQQKPGQAPKLLIYGATTLETGVPSRFSGSGSGTDYTLTISSLQPEDFATYYCQQSWNTPWTFGQGTKLEIKRGGGGSGGGGSGGGGSQVQLQQPGAELVKPGASVKMSCKASGYAFSSYWINWMKQKPGQGLEWIGQIYPGDGDTNYNGKFKGRATLTADTSSSTAYMQLSSLTSEDSAVYFCARSITTVVGCAMDYWGQGTSVTVSSTRGKPIPNPLLGLDSTGSGEDLKNVFPPEVAVFEPSEAEISHTQKATLVCLATGFYPDHVELSWWVNGKEVHSGVCTDPQPLKEQPALNDSRYCLSSRLRVSATFWQNPRNHFRCQVQFYGLSENDEWTQDRAKPVTQIVSAEAWGRADCGFTSESYQQGVLSATILYEILLGKATLYAVLVSALVLMAMVKRKDSRGRAKRSGSGATNFSLLKQAGDVEENPGPSRGHMTEYKPTVRLATRDDVPRAVRTLAAAFADYPATRHTVDPDRHIERVTELQELFLTRVGLDIGKVWVADDGAAVAVWTTPESVEAGAVFAEIGPRMAELSGSRLAAQQQMEGLLAPHRPKEPAWFLATVGVSPDHQGKGLGSAVVLPGVEAAERAGVPAFLETSAPRNLPFYERLGFTVTADVEVPEGPRTWCMTRKPGA", "values": [
      {"measurement": "NFAT-GFP ASSAY Positive Cell lines: NALM6", "result": "(+/−)"},
      {"measurement": "NFAT-GFP ASSAY Positive Cell lines: RAJI", "result": "RAJI (+), NALM6"}
    ]}
  ]
}
